These results are taken from PMC3983792 (Nature, 2012).

Experiment [1] addresses menin-MLL1_(MBM-LBM) complex (human) (UniProt O00255). In words: ITC.
Experiment [2] has as its target T1, meninΔ (human menin with the unstructured loop, residues 460–519, deleted) (human, UniProt O00255-2 1-610, residues 460–519 deleted).
T1 sequence (looked up): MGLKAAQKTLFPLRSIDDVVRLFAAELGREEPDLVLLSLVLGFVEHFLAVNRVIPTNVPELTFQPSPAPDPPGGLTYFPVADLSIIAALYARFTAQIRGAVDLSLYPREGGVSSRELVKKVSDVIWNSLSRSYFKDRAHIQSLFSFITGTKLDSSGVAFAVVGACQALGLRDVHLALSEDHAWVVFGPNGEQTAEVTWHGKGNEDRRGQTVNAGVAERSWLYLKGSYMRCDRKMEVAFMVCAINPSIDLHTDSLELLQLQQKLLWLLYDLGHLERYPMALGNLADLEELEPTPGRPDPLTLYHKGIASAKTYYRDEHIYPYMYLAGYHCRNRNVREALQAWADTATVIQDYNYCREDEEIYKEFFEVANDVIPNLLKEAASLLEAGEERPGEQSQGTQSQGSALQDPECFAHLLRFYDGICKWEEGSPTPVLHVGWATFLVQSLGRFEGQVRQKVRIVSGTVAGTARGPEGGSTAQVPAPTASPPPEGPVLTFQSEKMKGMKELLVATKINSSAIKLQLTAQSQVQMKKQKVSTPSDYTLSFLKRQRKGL
In words: ITC.

Experiment [3] concerns the target T1, meninΔ (human menin with the …). In words: crystal structure.
Experiment [4] has as its target T2, full-length menin (human, UniProt O00255-2 1-610).
T2 sequence (looked up): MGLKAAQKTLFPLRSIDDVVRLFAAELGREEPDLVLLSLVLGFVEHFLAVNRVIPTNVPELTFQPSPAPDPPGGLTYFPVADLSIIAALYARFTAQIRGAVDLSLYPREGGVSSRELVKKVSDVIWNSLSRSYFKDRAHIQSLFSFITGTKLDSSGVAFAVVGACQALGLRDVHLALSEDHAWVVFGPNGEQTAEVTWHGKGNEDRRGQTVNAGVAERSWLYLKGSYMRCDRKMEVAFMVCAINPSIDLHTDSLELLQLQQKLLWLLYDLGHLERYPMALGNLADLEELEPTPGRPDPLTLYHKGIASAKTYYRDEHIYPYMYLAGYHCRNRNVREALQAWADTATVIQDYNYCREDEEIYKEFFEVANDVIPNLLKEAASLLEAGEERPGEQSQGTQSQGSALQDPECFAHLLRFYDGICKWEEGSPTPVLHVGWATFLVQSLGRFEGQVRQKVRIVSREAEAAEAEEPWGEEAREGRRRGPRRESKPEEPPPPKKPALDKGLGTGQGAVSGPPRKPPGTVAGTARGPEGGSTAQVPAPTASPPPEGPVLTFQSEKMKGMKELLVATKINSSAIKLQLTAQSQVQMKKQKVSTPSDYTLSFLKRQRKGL
In words: ITC. (In general: In ITC the heat of successive injections is recorded.)

The target of experiment [5] is T2, full-length menin. In words: pull-down.

For the molecule “LEDGFIBD (IBD domain of LEDGF) (domain or fragment)”, in experiment [1], the dissociation constant Kd (commonly the concentration at which binding is half-saturated) amounted to 470 nM. In other words, the sub-micromolar range. The molecule ARGRFPGRPRGAGGGGGRGG (peptide, UniProt Q9UMN6 16-35, looked up) [MLL2MBM (MLL2 residues 16–35)] came in with a Kd in experiment [2] of 120 nM.

Regarding SPGRLFPGAPPTAKK (peptide, UniProt P17535 27-47, looked up) [JunDMBMΔ (JunD residues 27–47 with residues 40–45 deleted)], in experiment [3], the binding result is reported as “binds”. As for SPGRLFPGAPPTAAAGSMMKK (peptide, UniProt P17535 27-47, looked up) [JunDMBM (JunD residues 27–47, menin-binding motif)], in experiment [2], the binding result was “binds”. In experiment [2], RWRFPARPGTTGGGGGGGRR (peptide, UniProt Q03164 6-25, looked up) [MLL1MBM (menin-binding motif, residues 6–25 of MLL1)] gave a Kd of 82 nM. Besides, in the experiment with full-length menin [4], the binding result is reported as “binds”.

For RWRFPARPGTTGGGGGGGEE (peptide, UniProt Q03164 6-25, looked up) [MLL1MBM with 24RR25 substituted with two glutamates], in experiment [2], the “fold decrease in binding affinity against wild-type MLL1MBM” value stood at 21 fold.

B1: GST-fused JunD (residues 1–150) (domain or fragment, human, UniProt P17535 1-150, looked up)
chain: METPFYGDEALSGLGGGASGSGGSFASPGRLFPGAPPTAAAGSMMKKDALTLSLSEQVAAALKPAAAPPPTPLRADGAPSAAPPDGLLASPDLGLLKLASPELERLIIQSNGLVTTTPTSSQFLYPKVAASEEQEFAEGFVKALEDLHKQ
Turning to B1, the binding result with full-length menin [5] was “binds”.

B2: MLL1_(MBM-LBM)Δ (MLL1 residues 6–153 with loops 16–22 and 36–102 deleted) (domain or fragment, human, UniProt Q03164 6-153, looked up)
chain: RWRFPARPGTGRRGLGGAPRQRVPALLRVGPGFDAALQVSAAIGTNLRRFRAVFGESGGGGGSGEDEQFLGFGS
On to B2, for which, in experiment [3], the binding result is recorded as “binds”.
